# In EP1161455B1:
# What was measured:
# [1] = molecular target: HIV-1 Env (LAV) (HIV-1 (LAV)) (UniProt P03377); test: cell-based or functional assay
# [2] = molecular target: HIV-1 wildtype (WT) SF162 Env (HIV-1 (SF162)) (UniProt P19550); test: cell-based or functional assay
Substance,"% control, Standard Assay (target cells with CXCR4 and CD4, no sCD4); 17b 0.1 µg/ml [1] [% control]","% control, Standard Assay (target cells with CXCR4 and CD4, no sCD4); 17b 0.5 µg/ml [1] [% control]","% control, Standard Assay (target cells with CXCR4 and CD4, no sCD4); 17b 1 µg/ml [1] [% control]","% control, Standard Assay (target cells with CXCR4 and CD4, no sCD4); 17b 5 µg/ml [1] [% control]","% control, sCD4 Assay (target cells with CXCR4 alone, sCD4 200 nM added); 17b 0.1 µg/ml [1] [% control]","% control, sCD4 Assay (target cells with CXCR4 alone, sCD4 200 nM added); 17b 0.5 µg/ml [1] [% control]","% control, sCD4 Assay (target cells with CXCR4 alone, sCD4 200 nM added); 17b 1 µg/ml [1] [% control]","% control, sCD4 Assay (target cells with CXCR4 alone, sCD4 200 nM added); 17b 5 µg/ml [1] [% control]","β-gal, Standard Assay (target cells with CXCR4 and CD4, no sCD4); 17b 0.1 µg/ml; no MAb 42.3 [1]","β-gal, Standard Assay (target cells with CXCR4 and CD4, no sCD4); 17b 0.5 µg/ml [1]","β-gal, Standard Assay (target cells with CXCR4 and CD4, no sCD4); 17b 1 µg/ml [1]","β-gal, Standard Assay (target cells with CXCR4 and CD4, no sCD4); 17b 5 µg/ml [1]","β-gal, sCD4 Assay (target cells with CXCR4 alone, sCD4 200 nM added); 17b 0.1 µg/ml; no MAb 11.89 [1]","β-gal, sCD4 Assay (target cells with CXCR4 alone, sCD4 200 nM added); 17b 0.5 µg/ml [1]","β-gal, sCD4 Assay (target cells with CXCR4 alone, sCD4 200 nM added); 17b 1 µg/ml [1]","β-gal, sCD4 Assay (target cells with CXCR4 alone, sCD4 200 nM added); 17b 5 µg/ml [1]","Total β-gal, WT Env (SF162), duplicate 1; effector cells with Env, target cells with CCR5 and no CD4; + sCD4 (100 nM) [2]","Total β-gal, WT Env (SF162), mean; + sCD4 (100 nM); 0.45 without sCD4 [2]"
MAb 17b (antibody),93.4,104,94.1,119,114,39.2,14.1,0,39.5,43.9,39.8,50.5,13.6,4.66,1.68,0,–,–
soluble CD4 (from UniProt P01730 26-208) (receptor),–,–,–,–,–,–,–,–,–,–,–,–,–,–,–,–,6.6,5.9
